According to US20180201655A1 (University of California, published 2018):

Experiments:
[1] = biological target: the molecule itself; assay: native PAGE, self-association (homodimer)
Source text: (§1) FIG. 9A-FIG. 9C: Quaternary structure characterization of smURFP and TDsmURFP. (A) Native PAGE gel of APCαFPs. Monomeric IFP1.4 (36.5 kD) was ran as a reference. R4-1 runs as a tetramer, while R10-10 and smURFP run as a homodimer (32 kD). (B) Native PAGE gel of TDsmURFP. Monomeric IFP1.4 (36.5 kD) and tandem dimer Tomato (tdTomato, 54.2 kD) were ran as references. TDsmURFP (32.9 kD) runs slightly higher than smURFP due to 23 amino acid linker. (C) SDS denaturing PAGE gel of smURFP and TDsmURFP. BV was imaged by addition of zinc. All FPs show correct MW and covalently attached BV. […] (A-C) Each FP was run on two lanes. EX is excitation maximum and EM is emission maximum.
(§2) smURFP ran as a 32-kD homodimer on a native gel. R10-10 ran as a32-kD homodimer, while R4-1 was atetramer (FIG. 9a). Tandem dimer smURFP (TDsmURFP) was created by adding a 23-amino-acid linker between subunits and had ˜70% fluorescence of smURFP in bacteria (FIG. 2c). TDsmURFP (33 kD) ran near smURFP. tdTomato (54 kD) and IFP1.4 (37 kD) confirmed the dimeric nature of smURFP (FIG. 9a,b). To confirm covalent BV attachment, the FPs were run on a denaturing gel, and BV was detected with zinc²⁵. […] C52 is evolutionarily conserved among all APCαs and covalently attaches PCB (FIGS. 6 and 10a). The C52S mutation eliminated smURFP fluorescence (FIG. 10b,c), and C52 remains the BV attachment site. […]

[2] = biological target: the molecule itself; assay: stoichiometry column of the table of biophysical properties (self-association)
[3] = biological target: the molecule itself; assay: native PAGE, self-association (tetramer)
Source text: as §1, §2

| Protein | binding result [2] | other results |
| --- | --- | --- |
| R10-10 (other, biliverdin (BV) covalently attached, Evolved APCα fluorescent protein of round 10; runs as a homodimer on native PAGE; also called R10-10+BV; not shown: polyhistidine tag on the C terminus) MKTCEQRVNIATLLTENKKKIVDKASQDLWRRHPDLIAPGGIAFSQRDRALCLRDYGWYLHLITFCLLAGDKGPIESIGLIGIREMYNSLGVPVPAMMESIRCLKEASLSLLDEEDANETAPYFDYIIKAMS | – | binding result [1]: binds |
| small ultra-red fluorescent protein (smURFP) + BV (other, biliverdin (BV) covalently attached at C52; predominant species has one BV per homodimer, purified from E. coli co-expressing HO-1; runs as a homodimer on native PAGE; not shown: polyhistidine tag on the C terminus) MKTSEQRVNIATLLTENKKKIVDKASQDLWRRHPDLIAPGGIAFSQRDRALCLRDYGWFLHLITFCLLAGDKGPIESIGLISIREMYNSLGVPVPAMMESIRCLKEASLSLLDEEDANETAPYFDYIIKAMS | binds | – |
| smURFP + BVMe2 (other, biliverdin dimethyl ester (BVMe2) attached, a single BVMe2 per homodimer, smURFP purified without chromophore, BVMe2 added in vitro; detected by mass spectrometry as the homodimer + BVMe2; also called smURFP+1BVMe2; not shown: polyhistidine tag on the C terminus) MKTSEQRVNIATLLTENKKKIVDKASQDLWRRHPDLIAPGGIAFSQRDRALCLRDYGWFLHLITFCLLAGDKGPIESIGLISIREMYNSLGVPVPAMMESIRCLKEASLSLLDEEDANETAPYFDYIIKAMS | binds | – |
| R4-1 (other, biliverdin (BV) covalently attached, Evolved APCα fluorescent protein of round 4; runs as a tetramer on native PAGE; also called R4-1+BV; not shown: polyhistidine tag on the C terminus) MKTGEQRVKIATLLSENEKKIVDKASQDLWRRRPDFIAPGGIAFSQRERALCLRDYRWYLHLITFCLLAGDKDPIESIGLIGIREMYNSLGVPVPGMMESIRCLKEASLSLLDEEDAKETAPYFDYIIKAMS | – | binding result [3]: binds |
